Values quoted from earlier work as cited in publication PMC3951123.
pKd: −log10 of the molar value.

How the values were obtained:
Test in all cases: SPR
[1] = biological target: Syk linker B peptide SykLB-YpY (Mus musculus) (UniProt P48025)
[2] = biological target: Syk linker B peptide SykLB-pYY (Mus musculus) (UniProt P48025)
[3] = biological target: Syk linker B peptide SykLB-pYpY (Mus musculus) (UniProt P48025)

pKd [1]: 4.15
pKd [2]: 4.84
pKd [3]: 5.13
Substance: Vav1 SH2 (from UniProt P15498)
